Experimental data taken from doi:10.1101/2021.04.02.438172.
Each block holds one substance with its values, some of them ahead of it.

Assays:
[1] = target: Sandercyanin His-108-Ala (Stizostedion vitreum (formerly Sander vitreus), walleye)
[2] = target: Sandercyanin Phe-106-Ala (Stizostedion vitreum (formerly Sander vitreus), walleye)
[3] = target: Sandercyanin Tyr-142-Ala (Y142A) (Stizostedion vitreum (formerly Sander vitreus), walleye)
[4] = target: wild-type Sandercyanin (Stizostedion vitreum (formerly Sander vitreus), walleye); assay: SEC

stoichiometry N [1]: 4
Substance: Sandercyanin His-108-Ala (natural protein)

stoichiometry N [2]: 4
Substance: Sandercyanin Phe-106-Ala (natural protein)

stoichiometry N [3]: 4
Substance: Sandercyanin Tyr-142-Ala (Y142A) (natural protein)

stoichiometry N [4]: 4
Substance: wild-type Sandercyanin (natural protein)
